19 molecules from patent EP4269437A1 can be followed below.

Sequences and labels used below:
B1: NB223 (VHH)
VHH: EVQLVESGGGLVQAGGSLRLSCAASGRTFSSYGMGWFRQAPGKEREFVAAVNWSNSSAYYADSVKDRFTISSDNAKSTIYLQMNSLKPEDTAVYYCRPYSDYVTYDPDDYDYWGQGTQVTVSS
B2: NB139 (VHH)
VHH: EVQVVESGGGLVQTGGSLRLSCAASGDTALISAMGWYRQAPGKERELVAALTNTGITYYADSVKGRFTISRDNAKNTVYLQMNSLKPEDTAVYYCNAGAPPPGGLGYDESDYWGQGTQVTVSS
B3: NB735 (VHH)
VHH: EVQVVESGGGLVQPGGSLTLSCAVSGFTLDDYSIGWFRQAPGRAREAVSCTSNRDGSTYYEDSVKGRFTISRDNAKNTVYLQMNSLKPEDTAVYRCSTDCSLYGSTYSPDYWGQGTQVIVSS
B4: NB164 (VHH)
VHH: QVQLVESGGGLLQAGDSLRLSCIASGRTFSSYAMGWFRQAPGKEREFVAGINGNGRSQYYAEVVKDRFFISRDNAKNTVYLQMNSLKPEDTAVYYCAAEGHLGVPTVRSDEYDYWGQGTQVTVSS
B5: NB734 (VHH)
VHH: QVQLVETGGGLVQAGGSLRLSCAASGDTILFSAVGWHRQAPGKERELVAAITNSGVTYYADSVKGRFSISRDNAKNTVYLQMNSLKPEDTAVYYCNAGAPPPGEFGYDESDYWGQGTQVTVSS
B6: NB222 (VHH)
VHH: QVQLVESGGGLVQAGGSLRLSCAASGGTFSNFNVGWFRQAPGKEREFVAASNWSAGTTHYSDSVKGRFTISRDNAANTAYLQMNSLRPDDTAVYYCNRVIRGTTYPDVYYGMDYWGKGTLVTVSS
B7: NB166 (VHH)
VHH: EVQVQESGGGLVQAGGSLTLSCAASGDTILISSIGWYRQAPGKERELVAAITNSGLTYYPDSVKGRFTISRDNAKNTVYLQMNNLKPEDTAVYYCNAGGPPPGGLGYDESDYWGQGTQVTVSS
B8: NB221 (VHH)
VHH: EVQLVESGGGLVQAGDSLRLSCAASGRTFSSVAMGWFRQAPGKEREFVAAISRSGGSAGYADSVKDRSTIARDNTKNTVYLQMNSLKPEDTAVYFCAASEYDFCSTHGCYDYWGQGTQVTISL
B9: NB148 (VHH)
VHH: QVQLVESGGGLVQAGGSLRLSCAASGGTFSGSELGWFRQAPGKEREFVAGISRNGGTTGYSDSVKDRFTIARDNAKNTVYLQMNSLKPEDTAVYYCAAGLRAYYGDSYVDTMTENYNYWGQGTQVTVSS
B10: NB532 (VHH)
VHH: QVQLVETGGGLVQAGGSLRLSCAASGRTFSSYNMGWFRQAPGKEREFVAAISWSGGSQGYAAAVKDRFTISRDNAKNTVYLQMNSLKAEDTAVYYCAAKYHSGSYYYTSIRPEEYDYWGQGTQVTVSS
B11: NB733 (VHH)
VHH: QVQLVESGGGLVQPGASLRLSCAAAGFTFSSWAMTWVRQAPGKGLEWVSAISSGSGEMADYADSVKGRFAISRDNAKNTLYLQMNNLQPEDTAMYYCAKGGYLTYANLGPGTQVTVSS
B12: NB755 (VHH)
VHH: QVQLVESGGGLVQAGGSLRLSCVDSGRTFSSYGMGWFRQAPGKEREFVAAVNWRNTTAYYADSAKDRFTISSDNAKNTVYLQMASLKPEDTGVYYCRPYSDYVSYDPTEYDSWGQGTQVTVSS
B13: NB159 (VHH)
VHH: QVQLVESGGGSVQAGDSLRISCEASGRTFMRYSMGWFRQASGKEREFVAAISWGGSSTYYADSVKGRFIISRDNTKNTVFLQMNSLKPEDTAVYYCAADTNPSGSWDRPTNEAEYDYWGQGTQVTVSS
B14: NB147 (VHH)
VHH: EVQVVESGGGVVQAGDSLRLSCVASGRTFSSVAMGWFRQAPGKEREFVAAISRSGGSAGYSDSVKDRSTISRDNAKNTVYLQMNSLKPEDTAVYFCAASELDFCSTLGCYDYWGQGIQVTFSS
B15: NB153 (VHH)
VHH: DVQLQESGGGLVQAGGSLRVSCAASGRTFSSYGMGWFRQAPGKERELVAAITNTGLTYYADSVEGRFTISRDAAKNTVYLQMNSLEPEDTAVYYCNAGAPPPGGLGYDESDYWGQGTLVTVSS
B16: NB754 (VHH)
VHH: QLQLVESGGGLVQPGGSLRLSCAVSGFTFSSDAMNWYRQAPGKERELVASITIDGGSTNYADSVKGRFTISRDNAKNTLYLQMNSLKPEDTAVYYCNADRGIIIYGKTYWGQGTQVTVSS
B17: NB548 (VHH)
VHH: QLQLVESGGGLVQPGGSLRLSCTANGFSVGDYSMSWHRQPPGKEREVVATTARDSGSTFYAASVKGRFTISRDNAKNTVYLQMNSLKPEDTGVYYCRVNSQDYWGQGTQVTVSS
B18: NB169 (VHH)
VHH: QVQLVESGGGLVPPGGSLRLSCAASGFTFSSYPMSWYRQAPGRKRDFVAMLTGAGGSTDYADSVKGRFTISRDNAKNTVYLQMNSLKPEDTAVYYCNAPAAMRDYGIDYWGKGTLVNVSS
B19: NB154 (VHH)
VHH: QVQLVESGGGLVQAGDSLRLSCAASGGTFSGYGMGWFRQAPGKEREFVAGISRHGGSTGYSSSVKDRFTISRDNAKNTVDLQMNSLKPEDTAVYHCAAALRPDYGDSYVYTSTSNYEYWGQGTQVTVSS

The target in the first assay is PD-1 (UniProt Q15116). Nature of the assay: blocking ELISA, clone supernatant, competitor PD-L1.hFc detected with anti-human Fc HRP.
PD-1, sequence (Q15116 25-170 limits assumed): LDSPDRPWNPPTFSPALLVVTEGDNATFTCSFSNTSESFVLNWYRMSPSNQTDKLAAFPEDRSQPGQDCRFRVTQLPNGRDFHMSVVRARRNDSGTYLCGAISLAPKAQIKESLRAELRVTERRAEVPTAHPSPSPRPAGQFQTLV
B1: the OD450, PD-L1 binding with PD-1 was 2.25 OD450.
Molecule B2 showed an OD450, PD-L1 binding with PD-1 of 2.39 OD450.
B3 came in with an OD450, PD-L1 binding with PD-1 of 2.44 OD450.
B4 came in with an OD450, PD-L1 binding with PD-1 of 2 OD450.
On the same count and under the same terms, then B5, with 1.42 OD450.
On to B6, for which the OD450, PD-L1 binding with PD-1 was 2.23 OD450.
For B7, the OD450, PD-L1 binding with PD-1 turned out to be 2.29 OD450.
As to B8, the OD450, PD-L1 binding with PD-1 came to 2.25 OD450.
On to B9, for which the OD450, PD-L1 binding with PD-1 stood at 2.56 OD450.
On to B10, for which the OD450, PD-L1 binding with PD-1 came to 2.19 OD450.
On the same count and under the same terms, then B11, with 2.47 OD450; and B12, with 2.2 OD450.
B13 yielded an OD450, PD-L1 binding with PD-1 of 2.1 OD450.
B14 came in with an OD450, PD-L1 binding with PD-1 of 0.994 OD450.
Regarding B15, the OD450, PD-L1 binding with PD-1 turned out to be 2.05 OD450.
On the same count and under the same terms, in the case of B16 it was 2.37 OD450.
Take B17: the OD450, PD-L1 binding with PD-1 came to 2.43 OD450.
B18 had an OD450, PD-L1 binding with PD-1 of 2.13 OD450.
For the molecule B19, the OD450, PD-L1 binding with PD-1 was 2.28 OD450.

In another assay the target is PD-1 (UniProt Q15116). Nature of the assay: ELISA, TG1 supernatant on coated PD-1, anti-c-myc HRP.
In turn, B1 registered an OD450, clone binding with PD-1 of 1.3 OD450.
B2: the OD450, clone binding with PD-1 was 3.12 OD450.
On the same count and under the same terms, then B3, with 1.81 OD450; and B4, with 2.84 OD450.
In the case of B5, the OD450, clone binding with PD-1 was 2.17 OD450.
Consider B6, for which the OD450, clone binding with PD-1 came to 3.13 OD450.
Molecule B7 returned an OD450, clone binding with PD-1 of 3.39 OD450.
As to B8, the OD450, clone binding with PD-1 came to 2.62 OD450.
The molecule B9 came in with an OD450, clone binding with PD-1 of 2.84 OD450.
As to B10, the OD450, clone binding with PD-1 was found to be 1.36 OD450.
On to B11, for which the OD450, clone binding with PD-1 was 1.03 OD450.
Still for that read-out and setting: in the case of B12 it was 1.7 OD450; in that of B13, 1.84 OD450; in that of B14, 2.63 OD450.
Still for that read-out and setting: then B15, with 3.29 OD450; and B16, with 2.04 OD450; and B17, with 2.13 OD450.
Molecule B18 displayed an OD450, clone binding with PD-1 of 2.9 OD450.
B19 returned an OD450, clone binding with PD-1 of 2.61 OD450.
